Data as given in patent publication US20220403048A1 (CANCER RESEARCH TECHNOLOGY, published 2022).
Changes are numbered by the printed parent chain. Values belong to the binder of their own block, whether it stands above or below them.

How the values were obtained:
[1] = molecular target: T1, recombinant human trimeric ARG2 enzyme (construct not given) (human, UniProt P78540 23-354); assay: cell-based or functional assay
T1 sequence (looked up): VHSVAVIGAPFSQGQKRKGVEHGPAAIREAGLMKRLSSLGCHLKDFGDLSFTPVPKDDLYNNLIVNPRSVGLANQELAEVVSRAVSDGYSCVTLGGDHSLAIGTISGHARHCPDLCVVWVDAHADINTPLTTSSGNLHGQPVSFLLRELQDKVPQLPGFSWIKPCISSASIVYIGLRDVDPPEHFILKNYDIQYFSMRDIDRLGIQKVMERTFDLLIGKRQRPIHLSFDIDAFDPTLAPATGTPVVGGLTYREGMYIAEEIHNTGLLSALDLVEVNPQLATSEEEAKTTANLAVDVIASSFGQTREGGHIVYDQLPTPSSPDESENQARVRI

[2] = molecular target: T2, biotinylated recombinant human trimeric ARG1 enzyme (Avi-huARG1-His10) (human, UniProt P05089 1-322, biotinylated in HTRF and streptavidin BLI assays); assay: HTRF direct binding assay, biotinylated recombinant human trimeric ARG1
T2 construct: also called Human ARG1; recombinant ARG1
T2 sequence: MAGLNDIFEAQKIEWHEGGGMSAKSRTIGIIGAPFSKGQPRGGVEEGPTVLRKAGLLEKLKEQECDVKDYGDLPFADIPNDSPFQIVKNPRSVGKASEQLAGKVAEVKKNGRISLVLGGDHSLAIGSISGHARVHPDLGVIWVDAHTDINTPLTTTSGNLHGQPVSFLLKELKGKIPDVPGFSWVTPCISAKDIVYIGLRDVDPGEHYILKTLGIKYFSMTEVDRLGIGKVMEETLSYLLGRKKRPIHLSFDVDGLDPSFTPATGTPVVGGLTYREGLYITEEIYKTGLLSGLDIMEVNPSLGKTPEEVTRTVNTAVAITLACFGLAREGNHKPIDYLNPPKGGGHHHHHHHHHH

[3] = molecular target: T3, biotinylated recombinant human trimeric ARG2 enzyme (Avi-huARG2-His10) (human, UniProt P78540 23-354, biotinylated); assay: HTRF epitope competition, scFv titrated, competitor C0020187 IgG, on biotinylated human trimeric ARG2
T3 construct: also called avi-Arg2-His10; bio-ARG2
T3 chain: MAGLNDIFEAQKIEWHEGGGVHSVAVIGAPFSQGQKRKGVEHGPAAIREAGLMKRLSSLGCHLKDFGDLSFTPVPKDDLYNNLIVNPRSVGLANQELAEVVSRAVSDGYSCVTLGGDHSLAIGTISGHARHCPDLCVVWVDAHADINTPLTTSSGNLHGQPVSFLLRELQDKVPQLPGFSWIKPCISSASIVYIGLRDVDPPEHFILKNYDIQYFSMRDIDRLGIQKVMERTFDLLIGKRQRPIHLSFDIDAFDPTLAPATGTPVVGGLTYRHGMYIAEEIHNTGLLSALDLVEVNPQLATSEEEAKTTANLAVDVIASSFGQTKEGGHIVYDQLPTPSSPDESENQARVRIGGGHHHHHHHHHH

[4] = molecular target: T3, biotinylated recombinant human trimeric …; assay: HTRF direct binding assay, biotinylated recombinant human trimeric ARG2, streptavidin cryptate and anti-c-myc-XL665, % Delta F
Description: In this assay, binding of unpurified scFv to recombinant human trimeric ARG2 enzyme was assessed by measuring the fluorescence resonance energy transfer (FRET) between the c-myc tagged scFv and the biotinylated enzyme using streptavidin cryptate and anti-c-myc-XL665 detection reagents (CisBio International, France; cat: 610SAKLB and 61 MYCXLB respectively). Selection outputs were screened as unpurified bacterial periplasmic extracts containing scFv, prepared in 200 mM tris buffer pH 7.4, 0.5 mM EDTA and 0.5 M sucrose. 5 μl of unpurified scFv samples were added to a Greiner® 384 well assay plate (Greiner Bio-one, UK; cat: 784076). This was followed by the addition of 5 μl of 12 nM recombinant human trimeric ARG2 enzyme, 5 μl of 6.67 nM streptavidin cryptate and 5 μl 40 nM anti-c-myc-XL665. […] Assay plates were incubated overnight at 4° C. prior to reading time resolved fluorescence on a Pherastar plate reader ([…]) using an excitation wavelength of 320 nm and measuring the emission at 620 nm and 665 nm (100 flashes).
The ARG2 binding profile of each purified scFv was determined by testing a dilution series of the purified scFv in the HTRF™ assay described in section 1.4, substituting the unpurified scFv periplasmic preparation with the purified scFv. […]

[5] = molecular target: T4, biotinylated recombinant cynomolgus monkey trimeric ARG2 enzyme (Avi-cynoARG2-His10) (cynomolgus monkey, UniProt P78540 23-354 (human entry), biotinylated); assay: HTRF direct binding assay, biotinylated recombinant cynomolgus trimeric ARG2, streptavidin cryptate and anti-c-myc-XL665, Delta F %
T4 construct: also called cynomolgus ARG2
T4 chain: T3 chain with A189P, R231Q, H273E, K325R, D333G

[6] = molecular target: T2, biotinylated recombinant human trimeric …; assay: BLI (OctetRED), biotinylated ARG1 on streptavidin tip
Description: (§1) The affinity of binding between the Fab of C0020187 and human ARG2, cynomolgus ARG2 and human ARG1 was estimated using assays in which the biotinylated ARG antigen was captured on a streptavidin sensor tip. A fresh sensor tip was used for each measurement and no regeneration was used. A series of dilutions of the C0020187 Fab (3.25-240 nM) were individually placed in contact with the ligand surface for a sufficient amount of time to observe sensorgrams that could be fitted to an appropriate binding model with confidence (typically 5 minutes), followed by an appropriate length of dissociation time (typically 10 minutes). Blank reference (0 nM Fab) data were subtracted from each dataset to reduce the impact of any buffer artefacts or non-specific binding effects. An appropriate binding model was then fitted simultaneously to the data from each analyte titration using the Octet Evaluation software.

[7] = molecular target: T3, biotinylated recombinant human trimeric …; assay: BLI (OctetRED), biotinylated ARG on streptavidin tip, Fab as analyte, 1:1 fit
Description: (§2) An Octet Kinetics Buffer (PBS containing 0.01% BSA and 0.002% Tween20) is typically used as the diluent buffer for the analyte samples and as the flow buffer during the dissociation phase. The experimental data is recorded over time as shift in interference pattern (nm) over time, which is directly proportional to the optical thickness at the biosensor tip, which in turn is an approximate measure of the mass of analyte bound. The proprietary Octet Data Analysis software package can then be used to process data and fit binding models to the data sets. Returned association (kₐ, M⁻¹ s⁻¹) and dissociation (kd, s⁻¹) rate constants allow calculation of dissociation (KD, M) affinity constants.
as §1
(§3) Example results for C0020187 are shown in Table 9, showing the association rate constants (kₐ), dissociation rate constants (kd) and dissociation constants (KD). These parameters were derived from a 1:1 binding fit to the data.

[8] = molecular target: T4, biotinylated recombinant cynomolgus …; assay: as above
Description: as §2, §1, §3

Trimeric human ARG2 EIA IC50 [1]: 964 nM | binding result [2]: no binding (tested: log M -6 (1e-6 M)) | IC50 [3]: 1580 nM | EC50 (read off the curve) [4]: ~20 nM | EC50 (read off the curve) [5]: ~10 nM
B1: C0020187 scFv (scFv, V domains shown)
VH: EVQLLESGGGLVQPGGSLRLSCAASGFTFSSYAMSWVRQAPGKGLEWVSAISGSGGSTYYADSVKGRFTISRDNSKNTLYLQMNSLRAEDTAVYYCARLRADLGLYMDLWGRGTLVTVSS
VL: QSVLTQPPSVSAAPGQKVTISCSGSSSNIGNHYVSWYQQLPGTAPKLLIYDNSERPSGIPDRFSGSKSGTSATLGITGLQTGDEADYYCGTWDSSLSALVFGGGTKLTVL
notes: c-myc tagged scFv; also called parent C0020187 scFv

binding result [6]: no binding (tested: 3.25-240 nM Fab) | Kd [7]: 8.35 nM | koff [7]: 0.000577 s⁻¹ | kon [7]: 69200 M⁻¹ s⁻¹ | Kd [8]: 6.26 nM | koff [8]: 0.000631 s⁻¹ | kon [8]: 101000 M⁻¹ s⁻¹
B2: C0020187 Fab (Fab, V domains shown)
VH: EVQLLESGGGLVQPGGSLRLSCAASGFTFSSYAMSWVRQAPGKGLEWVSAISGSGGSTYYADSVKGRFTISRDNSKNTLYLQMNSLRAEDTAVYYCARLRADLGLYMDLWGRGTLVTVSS
VL: B1 VL
notes: Human Fab (CH1 and part of the hinge; light chain constant domain); also called Fab of C0020187
